Experimental data as given in paper PMC6006248, “CARK1 mediates ABA signaling by phosphorylation of ABA receptors” (Cell Discovery, 2018).
Changes are numbered by the printed parent chain. In names and notes the source's numbering stands. One block for each molecule: values may come before it.

T1: RCAR3 (PYL8) with ABI1 (Arabidopsis thaliana, UniProt Q9FGM1)
T1 construct: recombinant receptor plus ABI1 phosphatase; tags and borders for this assay only in supplement; receptor monomeric; with Protein phosphatase 2C 56
T1 sequence (Q9FGM1 1-188): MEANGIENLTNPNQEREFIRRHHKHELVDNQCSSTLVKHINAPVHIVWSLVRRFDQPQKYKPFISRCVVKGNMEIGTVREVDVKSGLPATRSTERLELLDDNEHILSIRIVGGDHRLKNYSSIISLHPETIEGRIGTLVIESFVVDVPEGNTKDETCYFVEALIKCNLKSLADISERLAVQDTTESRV
T1 sequence (P49597 1-434 partner): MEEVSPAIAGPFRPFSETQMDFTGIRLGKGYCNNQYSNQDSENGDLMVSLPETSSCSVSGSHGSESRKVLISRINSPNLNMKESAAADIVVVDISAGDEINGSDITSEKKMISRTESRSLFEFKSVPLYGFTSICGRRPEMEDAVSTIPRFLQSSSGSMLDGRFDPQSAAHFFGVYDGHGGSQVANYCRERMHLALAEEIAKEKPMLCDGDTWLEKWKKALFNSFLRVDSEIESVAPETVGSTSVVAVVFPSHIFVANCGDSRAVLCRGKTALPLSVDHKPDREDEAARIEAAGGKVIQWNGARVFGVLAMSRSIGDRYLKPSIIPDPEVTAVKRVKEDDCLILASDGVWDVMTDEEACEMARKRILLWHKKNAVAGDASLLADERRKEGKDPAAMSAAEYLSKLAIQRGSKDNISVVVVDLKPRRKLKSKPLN

T2: RCAR11 (PYR1) with ABI1 (Arabidopsis thaliana, UniProt O49686)
T2 construct: recombinant receptor plus ABI1 phosphatase; tags and borders for this assay only in supplement; receptor dimeric; with Protein phosphatase 2C 56
T2 sequence (O49686 1-191): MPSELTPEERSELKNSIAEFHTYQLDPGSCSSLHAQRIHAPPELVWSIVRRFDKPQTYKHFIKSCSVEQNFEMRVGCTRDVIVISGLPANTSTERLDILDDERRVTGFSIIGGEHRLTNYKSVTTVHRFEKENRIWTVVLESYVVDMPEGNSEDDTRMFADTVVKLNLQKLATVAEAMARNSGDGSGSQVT
T2 sequence (P49597 1-434 partner): T1 sequence (P49597 1-434 partner)

T3: CARK1-KD (Arabidopsis thaliana, UniProt Q9LUT0)
T3 construct: kinase domain, residues 50-353, 6xHis fusion (pET28a), E. coli Rosetta (DE3)
T3 sequence (Q9LUT0 50-353): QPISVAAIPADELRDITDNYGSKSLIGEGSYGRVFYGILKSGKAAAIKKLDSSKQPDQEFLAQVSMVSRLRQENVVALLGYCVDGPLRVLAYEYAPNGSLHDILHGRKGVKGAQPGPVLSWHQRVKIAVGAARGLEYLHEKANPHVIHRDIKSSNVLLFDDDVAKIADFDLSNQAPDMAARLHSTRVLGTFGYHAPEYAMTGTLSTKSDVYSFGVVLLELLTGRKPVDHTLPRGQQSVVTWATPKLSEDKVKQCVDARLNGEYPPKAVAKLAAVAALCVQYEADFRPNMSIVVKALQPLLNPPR

T4: ABI1 (Clade A PP2C) (Arabidopsis, UniProt P49597 1-434)
T4 construct: Protein phosphatase 2C ABI1, Arabidopsis; source: purified with the similar procedures as described for CARK1-KD
T4 sequence (looked up): T1 sequence (P49597 1-434 partner)

T5: His-tagged CARK1-KD (kinase domain of CARK1, residues 50-353) (Arabidopsis, UniProt Q9LUT0 50-353)
T5 construct: CARK1 (At3g17410), Arabidopsis, kinase domain, residues 50-353; Cloned into pET28a for the pull-down; details of the purification are in the Supplementary Information; source: E. coli Rosetta (DE3), purified
T5 sequence (looked up): T3 sequence (Q9LUT0 50-353)

T6: RCAR3^S85R (interface point mutant) (Arabidopsis, UniProt Q9FGM1 1-188, S85R)
T6 sequence: T1 sequence (Q9FGM1 1-188) with S85R

T7: RCAR3^T77A (Arabidopsis, UniProt Q9FGM1 1-188, T77A)
T7 sequence: T1 sequence (Q9FGM1 1-188) with T77A

T8: RCAR3^T77D (phosphor-mimic form of RCAR3) (Arabidopsis, UniProt Q9FGM1 1-188, T77D)
T8 sequence: T1 sequence (Q9FGM1 1-188) with T77D

B1: wild-type RCAR3 (purified, SPR and phosphatase assay) (receptor, Arabidopsis, UniProt Q9FGM1 1-188, looked up)
chain: T1 sequence (Q9FGM1 1-188)
notes: ABA receptor RCAR3 (PYL8), Arabidopsis; a His-tagged RCAR3 is named for the in-gel kinase assay; also called PYL8; source: purified with the similar procedures as described for CARK1-KD
B2: RCAR3^T77D (phosphor-mimic form of RCAR3) (receptor, Arabidopsis, UniProt Q9FGM1 1-188, looked up)
chain: T1 sequence (Q9FGM1 1-188) with T77D
notes: ABA receptor RCAR3 (PYL8), Arabidopsis, with T77D; source: purified with the similar procedures as described for CARK1-KD
B3: RCAR3^T77A (receptor, Arabidopsis, UniProt Q9FGM1 1-188, looked up)
chain: T1 sequence (Q9FGM1 1-188) with T77A
notes: ABA receptor RCAR3 (PYL8), Arabidopsis, with T77A; source: purified with the similar procedures as described for CARK1-KD
B4: GST-tagged RCAR3 (receptor, Arabidopsis, UniProt Q9FGM1 1-188, looked up)
chain: T1 sequence (Q9FGM1 1-188)
notes: ABA receptor RCAR3 (PYL8), Arabidopsis, cDNA cloned into pGEX-6P-1; Details are in the Supplementary Information; also called PYL8; source: E. coli, purified (similar procedures as for CARK1-KD)
B5: GST-tagged RCAR11 (receptor, Arabidopsis, UniProt O49686 1-191, looked up)
chain: T2 sequence (O49686 1-191)
notes: ABA receptor RCAR11 (PYR1), Arabidopsis, cDNA cloned into pGEX-6P-1; Details are in the Supplementary Information; also called PYR1; source: E. coli, purified (similar procedures as for CARK1-KD)
B6: RCAR3^S85R (interface point mutant) (receptor, Arabidopsis, UniProt Q9FGM1 1-188, looked up)
chain: T1 sequence (Q9FGM1 1-188) with S85R
notes: ABA receptor RCAR3 (PYL8), Arabidopsis, with S85R; source: purified with the similar procedures as described for CARK1-KD
B7: ABI1 (Clade A PP2C) (enzyme)
chain: T1 sequence (P49597 1-434 partner)

Columns and labels:
RCAR3 (PYL8) with ABI1 = target: T1, RCAR3 (PYL8) with ABI1; assay: in vitro Ser/Thr phosphatase assay of ABI1; type: biochemical; conditions: read-out is receptor-dependent inhibition of ABI1
RCAR11 (PYR1) with ABI1 = target: T2, RCAR11 (PYR1) with ABI1; assay: in vitro Ser/Thr phosphatase assay of ABI1; type: biochemical; conditions: read-out is receptor-dependent inhibition of ABI1
[1] = target: ABI1 (Clade A PP2C) (Arabidopsis) (UniProt P49597)
CARK1-KD = target: T3, CARK1-KD; assay: in vitro kinase assay, […] autoradiography; type: biochemical; conditions: labelled compound; autophosphorylation and phosphorylation of RCAR3/RCAR11
ABI1 (Clade A PP2C) [2] = target: T4, ABI1 (Clade A PP2C); assay: SPR; in vitro; who was immobilised and the conditions are not told in the main text (Supplementary Fig. S7A-E); conditions: both partners purified
ABI1 (Clade A PP2C) [3] = target: B7; assay: SPR
[4] = target: T5, His-tagged CARK1-KD (kinase domain of …); assay: pull-down; GST pull-down; His-tagged CARK1-KD or CARK1-KD^N204A (50, 100 and 200 μg) incubated with 100 μg of GST-tagged RCAR3 or RCAR11; SDS-PAGE and immunoblot; conditions: both partners purified
[5] = target: T6, RCAR3^S85R (interface point mutant); assay: SPR
RCAR3^T77A = target: T7, RCAR3^T77A; assay: SPR
[6] = target: T8, RCAR3^T77D (phosphor-mimic form of …); assay: SPR

Molecule: CC1=CC(=O)CC(C)(C)[C@@]1(O)/C=C/C(C)=C\C(=O)O [ABA]
- in vitro Ser/Thr phosphatase assay of ABI1 (RCAR3 (PYL8) with ABI1): phosphatase activity of ABI1 was totally abolished by either forms of RCAR3/RCAR11
- in vitro Ser/Thr phosphatase assay of ABI1 (RCAR11 (PYR1) with ABI1): phosphatase activity of ABI1 was totally abolished by either forms of RCAR3/RCAR11

- phosphatase activity of ABI1 in vitro, without ABA: inhibitory effect [1]: 28%
Molecule: RCAR11^T78D (phosphor-mimic form of RCAR11) (from UniProt O49686 1-191) (receptor)

Molecule: Nc1ncnc2c1ncn2[C@@H]1O[C@H](COP(=O)(O)OP(=O)(O)OP(=O)(O)O)[C@@H](O)[C@H]1O [ATP]
- in vitro kinase assay, 32P autoradiography (CARK1-KD): wild-type CARK1-KD showed strong autophosphorylation activity

Molecule: B1
- Kd (ABI1 (Clade A PP2C) [2]): 0.88 µM
- koff (ABI1 (Clade A PP2C) [3]): 0.000822 s⁻¹

Molecule: B2
- Kd (ABI1 (Clade A PP2C) [2]): ~0.2 µM

Molecule: B3
- Kd (ABI1 (Clade A PP2C) [2]): ~6.4 µM

Molecule: B4
- binding result [4]: binds

Molecule: B5
- binding result [4]: binds

Molecule: B6
- Kd (ABI1 (Clade A PP2C) [2]): 11.3 µM

Molecule: B7
- koff [5]: 0.00676 s⁻¹
- koff (RCAR3^T77A): 0.0046 s⁻¹
- koff [6]: 0.000867 s⁻¹
